Test results published in patent publication US11957762B2, “Immune tolerant and non-immune tolerant elastin-like recombinant peptides and methods of use” (University of Utah Research Foundation, priority 2015, dated 2024).
“Also recorded” adds a separate entry of the source. Read-outs that look alike come from different tables or passages of the source.

Experiments:
regular 4T1-luc cells = test: Cytotoxicity, regular 4T1-luc cells; format: cell-based, murine
Procedure: (§1) Cytotoxicity studies. The cytotoxicity was measured as previously described (Zhao, et al; Mol. Pharm, 2014; 11(8):2703-12). The incubation time was 72 hours. 4T1-lu mammosphere cells were generated as the previously described (Zhao, et al; Mol. Pharm, 2014; 11(8):2703-12).

[1] = Tissue distribution of Sali-ABA in 4T1-luc tumored mice; conditions: mouse, in vivo, 24 h
Procedure: (§2) Pharmacokinetics and biodistribution study. Sali-ABA concentrations in blood and tissues were analyzed, and the concentrations were analyzed as previously described (Zhao, et al; Mol. Pharm, 2014; 11(8):2703-12).
The aforementioned slow clearance and particle size of iTEP-MPBH-ABA-Sali could enable the conjugate to leverage the EPR effect and, therefore, more efficiently accumulate in tumors. […] Tumors and all following organ samples were collected at 24 hours post administration. The quantities of Sali-ABA were expressed as percentage of initial dose normalized by weight of organs, ID %/gram. The data were analyzed by one-way ANOVA. P-value is shown in the figure and * indicates a significant difference. At the same time, there was a reduction of Sali-ABA accumulation in the heart when iTEP-MPBH-ABA-Sali NP was compared with free Sali, although the difference was not statistically significant (0.57±0.18 ID %/gram vs 0.86±0.11 ID %/gram, FIG. 11C). The data were analyzed by one-way ANOVA. The reduction may benefit the toxicity profile of the NP as the heart is an organ sensitive to Sali (Bastianello, et al., J S Afr Vet Assoc, 1996; 67(1):38-41). […] The data were analyzed by one-way ANOVA. P-values are shown in the figure and * indicates a significant difference.

[2] = Hydrodynamic diameter by dynamic light scattering (DLS); format: physicochemical; conditions: 25 μM in PBS at 37° C.
Procedure: Characterization of the size of iTEPB-pOVA and iTEPB-iTEPA-pOVA fusions. The particle size distribution of the iTEP fusions was determined by dynamic light scattering (DLS) using a Zetasizer Nano-ZS instrument (Malvern Instruments, Malvern, UK) as previously described.^(29) The fusions were prepared at 5 μM and 25 μM in PBS and equilibrated at 37° C. for the measurement. The reported results represented the average particle size by number.
Dynamic light scattering (DLS) measurement. The measurement was carried out as previously described. iTEP, iTEP-MPBH-ABA-Sali conjugate, or PTX NP were measured at 25 μM in PBS at 37° C. using a Malvern Zetasizer Nano system (Malvern, Chester County, PA, USA).
Characterization of hydrodynamic diameters of iTEP-vaccine fusions. Hydrodynamic diameters of iTEP-vaccine fusions were determined by dynamic light scattering (DLS) using a Zetasizer Nano-ZS instrument (Malvern Instruments, Malvern, UK) as previously described (Zhao et al., Mol Pharm, 2014; 11(8):2703-12). The samples were resuspended at concentrations of 5, 25, 50, and 100 μM in PBS and sat at room temperature overnight before measurement. Some samples were kept in 5% C02 at 37° C. for 16 h before DLS measurement. Hydrodynamic diameter results of the sample of 5 μM concentration were reported because they were not affected by the used sample concentrations. Hydrodynamic diameters were presented using the size-by-number distribution approach. Z-average values and sizes-by-intensity data, however, were also reported.

[3] = test system: mammosphere 4T1-luc cells; test: Cytotoxicity, mammosphere 4T1-luc cells (CSCs); format: cell-based, murine
Procedure: as §1

[4] = In vitro Sali-ABA release assay; format: physicochemical; conditions: neutral pH (PBS), up to 100-hour monitoring
Procedure: In vitro Sali-ABA release assay. The release of Sali-ABA from iTEP-MPBH-ABA-Sali NP was measured after the NP was incubated in PBS (pH=7.4) or 0.1M sodium acetate/acetic acid buffer (pH=5) at 37° C. Multiple repeats of each mixture were kept in separate Eppendorf tubes and shaken at 100 rpms at 37° C. At predetermined time points, free Sali-ABA in one tube of sample was determined by HPLC based on a standard curve of Sali-ABA. The standard curve was established at 280 nm. The HPLC setup was the same as the described herein.
The relationship of the percentage of Sali-ABA release (F) with time (t) was fitted using the following equation and GraphPad V5.0. F%,released=100[…]

[5] = Pharmacokinetics (plasma Sali-ABA) after intravenous administration; set-up: species or system mice; conditions: mouse, in vivo
Procedure: as §2
Results. The pharmacokinetics of Sali-ABA and iTEP-MPBH-ABA-Sali were compared after they were administered intravenously to mice at a dose of 20 mg/Kg Sali-ABA equivalent. Plasma concentrations of Sali-ABA after the administration of either formulation were monitored for up to 24 hours (FIG. 11A). The temporal changes of the concentrations were fitted into a two-compartment pharmacokinetics model.

[6] = test system: 4T1-luc orthotopic tumors; test: Tumor growth, metastasis and survival study; format: in vivo, Balb/c mice
Procedure: Tumor growth study. Balb/c mice were inoculated subcutaneously with 10^6 4T1-luc cells in 50 μL PBS at the #9 mammary glands. At the seventh day after inoculation when the volumes of all tumors reached or exceeded 100 mm^3, the mice were randomly assigned into groups as described in FIGS. 12 and 13. The dosing and dosing schedules are as following: • 1. PBS control (three day interval); Sali-ABA (20 mg/Kg BW, three-day interval), • 2. iTEP-MPBH-ABA-Sali NP (20 mg/Kg BW, three-day interval), • 3. PTX NP (10 mg/Kg BW, three-day interval), • 4. PTX NP and iTEP-MPBH-ABA-Sali combination, iTEP-MPBH-ABA-Sali NP on the first day (20 mg/Kg BW), PTX NP on the second day (10 mg/Kg BW), then two-day interval.
Seven total doses were administered intravenously. The length and width dimensions of tumors were measured with a caliper every other day. Tumor volumes were estimated using the formula: Tumor Volume=(length×width^2/2) (Zhang et al., Biomaterials, 2012; 33(2):679-91). Also, mouse body weight was recorded the same day when the tumor size was measured. The treatments of PTX NP and the combinational therapy were done after the results of the first three treatment groups were obtained.
Moreover, in order to monitor metastasis, bioluminescence signals released from 4T1-luc cells were monitored as previously described (Tao et al., BMC Cancer, 2008; 8(1):228). Specifically, experimental mice were injected intraperitoneally with 100 μl of D-luciferin (15 mg/ml) at predetermined time points (twice each week, 3-4 days interval). At 15 minutes after luciferin injection, the mice were imaged under anesthesia in a Xenogen IVIS 200 biophotonic imager (PerkinElmer, Inc., MA, USA). The bioluminescence intensity was denoted using photon emission from the subject or radiance in the unit of photons/sec/cm^2/sr (steradian). […] The overall survival time was counted as days between tumor inoculation and mouse sacrifice. Metastasis-free survival and overall survival were analyzed by the Kaplan-Meier method, and the median survival of each groups were compared using the Log-rank test with GraphPad V5.0.

Molecule: CC[C@@H](C(=O)[C@@H](C)[C@@H](O)[C@H](C)[C@@H]1O[C@@H]([C@@H](CC)C(=O)O)CC[C@@H]1C)[C@H]1O[C@]2(C=C[C@@H](O)[C@]3(CC[C@@](C)([C@H]4CC[C@](O)(CC)[C@H](C)O4)O3)O2)[C@H](C)C[C@@H]1C [Sali, Salinomycin, reference compound]
- IC50 (regular 4T1-luc cells; Mus musculus, 4T1-Luc, 72 h): 4.4 µM
- Sali-ABA accumulation in the heart [1]: 0.86±0.11 ID %/gram

B1: iTEP-MPBH-ABA-Sali: conjugate of hydrophilic iTEP (SEQ ID NO: 58) with Sali-ABA-MPBH, self-assembled into a NP (conjugate)
chain: GGAGVPGGAGVPGGAGVPGGAGVPGGAGVPGGAGVPGGAGVPGGAGVPGGAGVPGGAGVPGGAGVPGGAGVPGGAGVPGGAGVPGGAGVPGGAGVPGGAGVPGGAGVPGGAGVPGGAGVPGGAGVPGGAGVPGGAGVPGGAGVPGGAGVPGGAGVPGGAGVPGGAGVPGGAGVPGGAGVPGGAGVPGGAGVPGGAGVPGGAGVPGGAGVPGGAGVPGGAGVPGGAGVPGGAGVPGGAGVPGGAGVPGGAGVPGGAGVPGGAGVPGGAGVPGGAGVPGGAGVPGGAGVPGGAGVPGGAGVPGGAGVPGGAGVPGGAGVPGGAGVPGGAGVPGGAGVPGGAGVPGGAGVPGGAGVPGGAGVPGGAGVPGGAGVPGGAGVPGGAGVPGGAGVPGGAGVPGGAGVPGGAGVPGGAGVPGGAGVPGGGVLPGVGGVLPGVGGVLPGVGGVLPGVGGVLPGVGGVLPGVGGVLPGVGGVLPGVGGVLPGVGGVLPGVGGVLPGVGGVLPGVGGVLPGVGGVLPGVGGVLPGVGGVLPGVGGVLPGVGGVLPGVGGVLPGVGGVLPGVGGVLPGVGGVLPGVGGVLPGVGGVLPGVGGVLPGVGGVLPGVGGVLPGVGGVLPGVGGVLPGVGGVLPGVGGVLPGVGGVLPGVGGVLPGVGGVLPGVGGVLPGVGGVLPGVGGVLPGVGGVLPGVGGVLPGVGGVLPGVGGVLPGVGGVLPGVGGVLPGVGGVLPGVGGVLPGVGGVLPGVGGVLPGVGGVLPGVGGVLPGVGGVLPGVGGVLPGVGGVLPGVGGVLPGVGGVLPGVGGVLPGVGGVLPGVGG
modifications: conjugated to Sali via ABA-MPBH linker
- hydrodynamic diameter (DLS) [2]: 51.2±18.2 nm
- cytotoxicity, times lower than Sali-ABA-MPBH alone (regular 4T1-luc cells; regular 4T1-luc cells): 2.6 times
- IC50 (regular 4T1-luc cells; regular 4T1-luc cells, 72 hours, read-out: IC50): 42.2 µM
- times more toxic to mammosphere 4T1-luc cells (CSCs) than to regular 4T1-luc cells [3]: about eight
- IC50 ([3]; mammosphere 4T1-luc cells, 72 hours): 5.8 µM
- release at the neutral pH [4]: no detectable release
- elimination half-life, times longer than free Sali-ABA administration [5]: 35 times
- median overall survival ([6]; days after tumor inoculation): 39 days
- development of metastasis in treated mice ([6]; mouse, in vivo, listed as iTEP-MPBH-ABA-Sali NP): No mice in the NP-treated group developed metastasis; also recorded: zero metastasis
- inhibition of primary tumor growth ([6]; seven intravenous doses): slowed primary tumor growth
